Laboratory results as given in US20220275100A1 (JIANGSU HENGRUI MEDICINE, published 2022).
Where a chain is given by its changes, count along the chain named.

B1: ch-011 (antibody, human IgG1, V domains shown)
VH: EVQLVESGGGLVKPGGSLKLSCAASGFTFSDYGMHWVRQAPEKGLEWVAFISSGSSSIYYADTVKGRFTISRDNAKNTLFLQMTSLRSEDTAMYSCARNYVSSYGYFDYWGQGTTLTVSS
VL: DIVMTQSPASLAVSLGQRATISCRASENVDNYGISFMHWYQQKPGQPPKLLIYRASNLESGIPARFSGSGSRTDFTLTINPVETDDVATYYCQQSNKDPLTFGSGTKLEIK
notes: also called chimeric antibody of hybridoma clone m011
B2: ch-160 (antibody, human IgG1, V domains shown)
VH: B1 VH with A23V, V48I, S53T, S57N, A61V, T63K, S95Y
VL: B1 VL with M4L, I21V, N28S, S95T, S104G, I110L
notes: also called chimeric antibody of hybridoma clone m160
B3: h011-06 (antibody, human IgG1, kappa, V domains shown)
VH: B1 VH with K13Q, K19R, E42G, N77S, T78S, S88A, M93V, L116V
VL: DIVMTQSPDSLAVSLGERATINCRASENVDNYGISFMHWYQQKPGQPPKLLIYRASNLESGIPDRFSGSGSRTDFTLTISSLQAEDVATYYCQQSNKDPLTFGGGTKVEIKR
B4: ch-009 (antibody, human IgG1, V domains shown)
VH: EFQLQQSGPELVKPGASVKISCKASGYSFTDYNLNWVKQSNGKSLEWIGVINPKYDAINYNQKFKDKATLTVDQSSSTAYMQLSSLTSEDSAVYYCAREGWGKALDYWGPGTSVIVSS
VL: DFVLTQSPATLSVTPGDSVSLSCRASQSIYTNLHWYQQKSHESPRLLIKYASQSISGIPSRFSGSGSGTDFTLSINSVETEDSGMYFCQQSNSWPLTFGAGTKLELK
notes: also called chimeric antibody of hybridoma clone m009
B5: h160-01 (antibody, human IgG1, kappa)
heavy: not shown
light: DIVMTQSPASLAVSLGERATINCRASESVDNYGISFMHWYQQKPGQPPKLLIYRASNLESGVPDRFSGSGSGTDFTLTISSLQAEDVAVYYCQQTNKDPLTFGGGTKVEIKRTVAAPSVFIFPPSDEQLKSGTASVVCLLNNFYPREAKVQWKVDNALQSGNSQESVTEQDSKDSTYSLSSTLTLSKADYEKHKVYACEVTHQGLSSPVTKSFNRGEC
notes: Humanized, human IgG1 / kappa; h160 VH1 + h160 VL1
B6: h160-07 (antibody, human IgG1, kappa, V domains shown)
VH: EVQLVESGGGLVQPGGSLRLSCAASGFTFSDYGMHWVRQAPGKGLEWIAFISTGSSNIYYVDKVKGRFTISRDNAKNTLYLQMTSLRAEDTAVYYCARNYVSSYGYFDYWGQGTTVTVSS
VL: B3 VL with M4L, D9A, N28S, I62V, D64A, T89V, S95T
B7: h160-05 (antibody, human IgG1, kappa)
heavy: not shown
light: B5 light
B8: h011-01 (antibody, human IgG1, kappa)
heavy: not shown
light: B5 light with A9D, S28N, T95S
notes: Humanized, human IgG1 / kappa; h011 VH1 + h011 VL1
B9: h011-04 (antibody, human IgG1, kappa, V domains shown)
VH: B1 VH with K13Q, K19R, E42G, N77S, T78S, S88A, M93V, L116V
VL: B3 VL with I62V, T89V
B10: h160-08 (antibody, human IgG1, kappa, V domains shown)
VH: B6 VH
VL: B3 VL with M4L, D9A, N22S, N28S, D64A, T89V, S95T
B11: h160-03 (antibody, human IgG1, kappa, V domains shown)
VH: B6 VH with I48V
VL: B3 VL with M4L, D9A, N28S, I62V, D64A, T89V, S95T
B12: h011-05 (antibody, human IgG1, kappa, V domains shown)
VH: B6 VH with I48V, T53S, N57S, V61A, K63T, N77S, T78S
VL: B3 VL
B13: h011-03 (antibody, human IgG1, kappa, V domains shown)
VH: B6 VH with I48V, T53S, N57S, V61A, K63T, N77S, T78S
VL: B3 VL with I62V, T89V
B14: h011-02 (antibody, human IgG1, kappa, V domains shown)
VH: B1 VH with K13Q, K19R, E42G, N77S, T78S, S88A, M93V, L116V
VL: B3 VL with I62V, R72G, T89V
B15: h160-02 (antibody, human IgG1, kappa)
heavy: not shown
light: B5 light with M4L
B16: h160-04 (antibody, human IgG1, kappa, V domains shown)
VH: B6 VH with I48V
VL: B3 VL with M4L, D9A, N22S, N28S, D64A, T89V, S95T
B17: h160-06 (antibody, human IgG1, kappa)
heavy: not shown
light: B5 light with M4L
B18: h009-07 (antibody, human IgG1, kappa)
heavy: not shown
light: EIVLTQSPATLSLSPGERATLSCRASQSIYTNLHWYQQKPGQSPRLLIKYASQSISGIPARFSGSGSGTDFTLTISSLEPEDFAVYYCQQSNSWPLTFGGGTKVEIKRTVAAPSVFIFPPSDEQLKSGTASVVCLLNNFYPREAKVQWKVDNALQSGNSQESVTEQDSKDSTYSLSSTLTLSKADYEKHKVYACEVTHQGLSSPVTKSFNRGEC
notes: Humanized, human IgG1 / kappa; h009 VH2 + h009 VL2
B19: h009-15 (antibody, human IgG1, kappa, V domains shown)
VH: EFQLVQSGAEVKKPGASVKVSCKASGYTFTDYNLNWVKQAPGQSLEWIGVINPKYDAINYNQKFKDKATLTVDQSASTAYMELSSLRSEDTAVYYCAREGWGKALDYWGQGTLVTVSS
VL: EFVLTQSPATLSLSPGERATLSCRASQSIYTNLHWYQQKPGQSPRLLIKYASQSISGIPARFSGSGSGTDFTLTISSLEPEDFAVYFCQQSNSWPLTFGGGTKVEIKR
B20: h009-10 (antibody, human IgG1, kappa, V domains shown)
VH: B19 VH
VL: B19 VL with F2I, F87Y
B21: h009-12 (antibody, human IgG1, kappa, V domains shown)
VH: B19 VH with K38R, I48M, K67R, A68V, L70I, Q74T
VL: B19 VL
B22: h009-09 (antibody, human IgG1, kappa, V domains shown)
VH: B19 VH with I48M, A68V
VL: B19 VL with F2I, F87Y
B23: h009-08 (antibody, human IgG1, kappa, V domains shown)
VH: B19 VH with K38R, K67R, L70I, Q74T
VL: B19 VL with F2I, F87Y
B24: h009-11 (antibody, human IgG1, kappa, V domains shown)
VH: B19 VH with F2V, K38R, S44R, I48M, K67R, A68V, L70I, V72R, Q74T
VL: B19 VL
B25: h009-14 (antibody, human IgG1, kappa, V domains shown)
VH: B19 VH with I48M, A68V
VL: B19 VL
B26: h009-13 (antibody, human IgG1, kappa, V domains shown)
VH: B19 VH with K38R, K67R, L70I, Q74T
VL: B19 VL

Target: T1, Fusion protein of CD38 extracellular domain with His tag: CD38-ECD-His (human, UniProt P28907 43-300)
T1 construct: unlabelled analyte in Biacore; also called human CD38-ECD-His; Human CD38-His
Test: SPR (Biacore), antibody captured by anti-human Fc, CD38-ECD-His as analyte;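 further: human CD38-ECD-His flowed over the captured antibody with the signal tracked in real time, and association and dissociation curves were fitted to derive the affinity values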
Procedure: Then the human CD38-ECD-His antigen passed through the surface of the chip, and a real-time detection for the reaction signal was performed with Biacore instrument. The resulting binding and dissociation curves were fitted to calculate the affinity values. After the dissociation of each cycle was completed in the experiment, the biochip was washed and regenerated with the regeneration solution supplied in the Human Fc Capture Kit (GE).

Kd | koff | kon | Binder
0.199 nM | 0.00148 s⁻¹ | 7.46e+06 M⁻¹ s⁻¹ | B1
0.062 nM | 0.00017 s⁻¹ | 2.74e+06 M⁻¹ s⁻¹ | B2
0.3 nM | 0.00201 s⁻¹ | 6.71e+06 M⁻¹ s⁻¹ | B3
0.234 nM | 0.000477 s⁻¹ | 2.04e+06 M⁻¹ s⁻¹ | B4
0.0687 nM | 0.000136 s⁻¹ | 1.99e+06 M⁻¹ s⁻¹ | B5
0.0748 nM | 0.000182 s⁻¹ | 2.43e+06 M⁻¹ s⁻¹ | B6
0.0691 nM | 0.000141 s⁻¹ | 2.05e+06 M⁻¹ s⁻¹ | B7
0.311 nM | 0.00208 s⁻¹ | 6.68e+06 M⁻¹ s⁻¹ | B8
0.299 nM | 0.00202 s⁻¹ | 6.76e+06 M⁻¹ s⁻¹ | B9
0.0782 nM | 0.000179 s⁻¹ | 2.29e+06 M⁻¹ s⁻¹ | B10
0.0779 nM | 0.000187 s⁻¹ | 2.4e+06 M⁻¹ s⁻¹ | B11
0.309 nM | 0.00213 s⁻¹ | 6.89e+06 M⁻¹ s⁻¹ | B12
0.306 nM | 0.00213 s⁻¹ | 6.97e+06 M⁻¹ s⁻¹ | B13
0.297 nM | 0.00195 s⁻¹ | 6.59e+06 M⁻¹ s⁻¹ | B14
0.0846 nM | 0.000163 s⁻¹ | 1.93e+06 M⁻¹ s⁻¹ | B15
0.0867 nM | 0.000184 s⁻¹ | 2.12e+06 M⁻¹ s⁻¹ | B16
0.0782 nM | 0.000164 s⁻¹ | 2.09e+06 M⁻¹ s⁻¹ | B17
0.995 nM | 0.0021 s⁻¹ | 2.11e+06 M⁻¹ s⁻¹ | B18
0.745 nM | 0.0017 s⁻¹ | 2.28e+06 M⁻¹ s⁻¹ | B19
2.12 nM | 0.00433 s⁻¹ | 2.04e+06 M⁻¹ s⁻¹ | B20
0.409 nM | 0.000917 s⁻¹ | 2.24e+06 M⁻¹ s⁻¹ | B21
2.14 nM | 0.00489 s⁻¹ | 2.29e+06 M⁻¹ s⁻¹ | B22
1.18 nM | 0.00223 s⁻¹ | 1.89e+06 M⁻¹ s⁻¹ | B23
5.17 nM | 0.0121 s⁻¹ | 2.33e+06 M⁻¹ s⁻¹ | B24
0.815 nM | 0.00185 s⁻¹ | 2.27e+06 M⁻¹ s⁻¹ | B25
0.465 nM | 0.00106 s⁻¹ | 2.28e+06 M⁻¹ s⁻¹ | B26
